In one data set the target is p97-C10 peptide. The data set is described as follows: Fluorescence anisotropy, UBXD1-PUB constructs titrated to 5,6-FAM labeled p97-C10 peptide. The format is binding. The note with it: for Kd: UBXD1-PUB (150–264) mutants titrated to 5,6-FAM labeled p97-C10 peptide (100 nM), 50 mM NaKPi, pH 6.5, 25 °C, fluorescence anisotropy ex 495/em 518 nm, fit of averaged triplicates ± standard deviation of the fit; for change in p97 binding affinity versus wild type, in words / fold change in KD / affinity versus wild type: UBXD1-PUB mutant vs wt, p97-C10, fluorescence anisotropy. From the text:
N-terminal hexahistidine-tagged UBXD1-PUB (150–264) was cloned into a pET28a expression vector using the NdeI and HindIII restriction sites. UBXD1 point mutants were produced by site-directed mutagenesis following the Quikchange protocol (Agilent Technologies).
Unlabeled p97-C10 ([…]), p97-C13 ([…]), and phosphorylated p97-C13 ([…]pYG) peptides for NMR and ITC as well as 5,6-FAM-labeled peptides for fluorescence studies were purchased from Caslo ApS (Denmark).
(§1) Fluorescence anisotropy measurements (excitation: 495 nm; emission 518 nm) were carried out on a JASCO FP-8300 fluorescence spectrometer in 50 mM NaKPi, pH 6.5 at 25 °C, titrating PUB constructs to 5,6-FAM labeled p97-C10 peptide (100 nM). All titrations were performed in triplicate. Binding curves of the averaged data were fitted with GraphPad Prism 5.0 (GraphPad) using the quadratic binding equation for a one-site specific binding model:(3) r=r0+rmax⋅(F+x+KD)−(F+x+KD)^2−4⋅x⋅F/2⋅F, with r = anisotropy, r0 = anisotropy without protein, rmax = maximum anisotropy, F = fluorescent probe (labeled peptide or protein) concentration, x = titrant protein concentration, and KD = dissociation constant.
(§2) Data points are shown as means ± standard deviation based on the three experiments. KD values are given as fit of the averaged data points ± standard deviation of the fit.
(Fluorescence polarisation rises when a labelled molecule tumbles more slowly, as on binding a larger partner.)

Data set [1] is described as follows: CD spectroscopy, secondary structure composition. It counts as physicochemical. The note with it: 0.15 mg/mL protein, 50 mM NaKPi pH 6.5, 25 °C; for α-helical content: 25 scans averaged, DichroWeb CDSSTR. As for the experimental part:
CD spectra were recorded on a Jasco J-170 CD spectrometer in a 1 mm quartz cuvette at 25 °C averaging 25 scans. Samples consisted of 0.15 mg/mL protein in 50 mM NaKPi, pH 6.5. The secondary structure composition was analyzed using DichroWeb (http://dichroweb.cryst.bbk.ac.uk) employing the CDSSTR algorithm.

The next data set has as its system full-length p97 (p97-fl). Nature of the data set: Fluorescence anisotropy, UBXD1-PUB with full-length p97. The format is binding. To be noted: isolated PUB domain of UBXD1. As for the experimental part: as §1, §2
In another data set the test system is p97. To be noted: qualitative pulldown; ref [29]; cited from earlier work. From the text: The PIM binding pockets of UBXD1-PUB and its closest homologue PNGase-PUB and the position of the p97-PIM peptide inside the pocket are almost identical, with small differences (Figure 6 and Figure 7). The side chains of the conserved UBXD1-Y181 and PNGase-Y38 are in the same position, stacking with p97-Y805 and forming a putative H-bond (3.2 or 3.1 Å, respectively) to the backbone carbonyl of p97-L804. UBDXD1-Y194 and PNGase-Y51, which represent the second conserved tyrosine of the PIM pocket, both stack with p97-Y805 and are only slightly shifted with respect to each other. However, the intr ...

Numbering of substitutions follows the chain as printed. Names and notes keep the numbering of the source. “Also recorded” adds a separate entry of the source.

B1: N201D: UBXD1-PUB point mutant (protein)
chain: STDPVAASIMKIYTFNKDQDRVKLGVDTIAKYLDNIHLHPEEEKYRKIKLQDKVFQERINCLEGTHEFFEAIGFQKVLLPAQDQEDPEEFYVLSETTLAQPQSLERHKEQLLAAE
modifications: left off: His6, N-terminal, cleaved
notes: UBXD1-PUB point mutant
The Kd is a measure of binding affinity in units of concentration. The low end stands for a tighter complex, the high end for a looser complex. Regarding B1, at p97-C10 peptide, the Kd amounted to 280 ± 3 µM and the “change in p97 binding affinity versus wild type, in words” value (“change … in words” below) is “largest decrease in binding affinity”.

B2: K193E: UBXD1-PUB point mutant (protein)
chain: B1 chain with K44E, D52N
modifications: left off: His6, N-terminal, cleaved
notes: UBXD1-PUB point mutant
In the case of B2, on p97-C10 peptide, the Kd is 17.7 ± 0.4 µM and the “change … in words” value was “do not show a decreased affinity”.

B3: K198E: UBXD1-PUB point mutant (protein)
chain: B1 chain with K49E, D52N
modifications: left off: His6, N-terminal, cleaved
notes: UBXD1-PUB point mutant
Consider B3, for which the Kd at p97-C10 peptide is 49.3 ± 0.8 µM.

B4: E206R: UBXD1-PUB point mutant (protein)
chain: B1 chain with D52N, E57R
modifications: left off: His6, N-terminal, cleaved
notes: UBXD1-PUB point mutant
At p97-C10 peptide, B4 came in with a Kd of 39.4 ± 0.9 µM.

B5: N184A: UBXD1-PUB point mutant (protein)
chain: B1 chain with N35A, D52N
modifications: left off: His6, N-terminal, cleaved
notes: UBXD1-PUB point mutant
B5 came in with a Kd at p97-C10 peptide of 28.7 ± 0.5 µM.

B6: V203A: UBXD1-PUB point mutant (protein)
chain: B1 chain with D52N, V54A
modifications: left off: His6, N-terminal, cleaved
notes: UBXD1-PUB point mutant
In turn, B6 yielded a Kd at p97-C10 peptide of 25.3 ± 0.5 µM.

B7: N184D: UBXD1-PUB point mutant (protein)
chain: B1 chain with N35D, D52N
modifications: left off: His6, N-terminal, cleaved
notes: UBXD1-PUB point mutant
Regarding B7, binding at p97-C10 peptide was put at a Kd of 80 ± 2 µM.

B8: Y194A: UBXD1-PUB point mutant (protein)
chain: B1 chain with Y45A, D52N
modifications: left off: His6, N-terminal, cleaved
notes: UBXD1-PUB point mutant
As for B8, the α-helical content in data set [1] amounted to 30%. For the same molecule, the “folding / secondary structure, in words” value in data set [1] (compared with wild type) is given as “partial loss of secondary structure”. Moreover, on p97-C10 peptide, binding was characterised by a dissociation constant (Kd) of 53 ± 2 µM and the “change … in words” value is reported as “large decrease in affinity”.

B9: Q200A: UBXD1-PUB point mutant (protein)
chain: B1 chain with Q51A, D52N
modifications: left off: His6, N-terminal, cleaved
notes: UBXD1-PUB point mutant
Turning to B9, at p97-C10 peptide, the Kd was 8.3 ± 0.3 µM and the “change … in words” value is “do not show a decreased affinity”.

B10: Y194F: UBXD1-PUB point mutant (protein)
chain: B1 chain with Y45F, D52N
modifications: left off: His6, N-terminal, cleaved
notes: UBXD1-PUB point mutant
As for B10, in data set [1], the α-helical content was 50%. For the same molecule, on p97-C10 peptide, the Kd stood at 141 ± 2 µM and the “change … in words” value is recorded as “largest decrease in binding affinity; also recorded: large decrease in affinity”.

B11: wild type (wt): N-terminal hexahistidine-tagged UBXD1-PUB (150–264), tag cleaved with thrombin (protein)
chain: B1 chain with D52N
modifications: left off: His6, N-terminal, cleaved
notes: N-terminal hexahistidine-tagged UBXD1-PUB (150–264), tag cleaved with thrombin
With B11, the α-helical content in data set [1] turned out to be 80%. In the data set on full-length p97 (p97-fl), the “affinity for full-length p97 relative to isolated PIM peptides” value is recorded as “same range as for the isolated PIM peptides”. The molecule also gave a Kd on p97-C10 peptide of 13.8 ± 0.3 µM.

B12: Y181A: UBXD1-PUB point mutant (protein)
chain: B1 chain with Y32A, D52N
modifications: left off: His6, N-terminal, cleaved
notes: UBXD1-PUB point mutant
As to B12, on p97-C10 peptide, the Kd is 111 ± 2 µM and the “change … in words” value is on record as “largest decrease in binding affinity”.

B13: N201A: UBXD1-PUB point mutant (protein)
chain: B1 chain with D52A
modifications: left off: His6, N-terminal, cleaved
notes: UBXD1-PUB point mutant
As for B13, at p97-C10 peptide, the affinity, expressed as Kd, was 64.1 ± 0.8 µM and the “fold change in KD / affinity versus wild type” value was 5 fold.

B14: R207E: UBXD1-PUB point mutant (protein)
chain: B1 chain with D52N, R58E
modifications: left off: His6, N-terminal, cleaved
notes: UBXD1-PUB point mutant
With B14, on p97-C10 peptide, the Kd came to 88 ± 1 µM and the “fold change in KD / affinity versus wild type” value was “six”. In the data set with p97-C10 peptide (listed as R207 to E), the “fold change in KD / affinity versus wild type” value was determined as 6 fold.

B15: Y181F: UBXD1-PUB point mutant (protein)
chain: B1 chain with Y32F, D52N
modifications: left off: His6, N-terminal, cleaved
notes: UBXD1-PUB point mutant
B15: binding on p97-C10 peptide was characterised by a dissociation constant (Kd) of 28.4 ± 0.6 µM.

B16: PNGase K50A, Y51A double mutant: PNGase double mutant (protein, UniProt Q96IV0 2-654, looked up, variant K50A Y51A)
Peptide-N(4)-(N-acetyl-beta-gl …: AAAALGSSSGSASPAVAELCQNTPETFLEASKLLLTYADNILRNPNDEAARSIRIGNTAFSTRLLPVRGAVECLFEMGFEEGETHLIFPKKASVEQLQKIRDLIAIERSSRLDGSNKSHKVKSSQQPAASTQLPTTPSSNPSGLNQHTRNRQGQSSDPPSASTVAADSAILEVLQSNIQHVLVYENPALQEKALACIPVQELKRKSQEKLSRARKLDKGINISDEDFLLLELLHWFKEEFFHWVNNVLCSKCGGQTRSRDRSLLPSDDELKWGAKEVEDHYCDACQFSNRFPRYNNPEKLLETRCGRCGEWANCFTLCCRAVGFEARYVWDYTDHVWTEVYSPSQQRWLHCDACEDVCDKPLLYEIGWGKKLSYVIAFSKDEVVDVTWRYSCKHEEVIARRTKVKEALLRDTINGLNKQRQLFLSENRRKELLQRIIVELVEFISPKTPKPGELGGRISGSVAWRVARGEMGLQRKETLFIPCENEKISKQLHLCYNIVKDRYVRVSNNNQTISGWENGVWKMESIFRKVETDWHMVYLARKEGSSFAYISWKFECGSVGLKVDSISIRTSSQTFQTGTVEWKLRSDTAQVELTGDNSLHSYADFSGATEVILEAELSRGDGDVAWQHTQLFRQSLNDHEENCLEIIIKFSDL
Regarding B16, the “binding in pulldown assay” value in the data set with p97 is recorded as “did not show impaired binding”.

The values are drawn from article PMC6995525, “Structure of the PUB Domain from Ubiquitin Regulatory X Domain Protein 1 (UBXD1) and Its Interaction with the p97 AAA+ ATPase” (Biomolecules, 2019).
